Measured values as given in publication PMC4529235.

B1: ASIC1a-ΔCCt (H8-hASIC1a-C466A/C471A/C497A/C528Stop) [human] / itself (parent)
chain: MELKAEEEEVGGVQPVSIQAFASSSTLHGLAHIFSYERLSLKRALWALCFLGSLAVLLCVCTERVQYYFHYHHVTKLDEVAASQLTFPAVTLCNLNEFRFSQVSKNDLYHAGELLALLNNRYEIPDTQMADEKQLEILQDKANFRSFKPKPFNMREFYDRAGHDIRDMLLSCHFRGEVCSAEDFKVVFTRYGKCYTFNSGRDGRPRLKTMKGGTGNGLEIMLDIQQDEYLPVWGETDETSFEAGIKVQIHSQDEPPFIDQLGFGVAPGFQTFVACQEQRLIYLPPPWGTCKAVTMDSDLDFFDSYSITACRIDCETRYLVENCNCRMVHMPGDAPYCTPEQYKECADPALDFLVEKDQEYCVCEMPCNLTRYGKELSMVKIPSKASAKYLAKKFNKSEQYIGENILVLDIFFEVLNYETIEQKKAYEIAGLLGDIGGQMGLFIGASILTVLELFDYAYEVIKHKLARRGKAQKEAKRSSADKGVALSLDDVKRHNPAESLRGHPAGMTYAANILPHHPARGTFEDFT

Variants of: B1
Assay: BMOE crosslinking at the cell surface, SDS-PAGE under reducing conditions, anti-His-tag western blotting, band densitometry
Conditions: with itself; mean ±SEM, n = 4; read off a plot

Variant	relative band intensity (densitometry)
chain 1 G433C C59V C61S	0.18
chain 1 G433C C59V	0.22
